# Source: the supplement of paper PMC10065799, “High-throughput profiling of sequence recognition by tyrosine kinases and SH2 domains using bacterial peptide display” (eLife, 2023)
# Assays:
# EPHB2 = EPHB2 (UniProt P29323); test: phosphorylation enrichment, bacterial display (enrichment ratio); higher = better substrate or ligand; peptides without Tyr show the background
# AncSZ = test: as above
# Fer (mouse) = test: as above
# Fyn = Fyn (UniProt P06241); test: as above
# Fes = Fes (UniProt P07332); test: as above
# c-Src = test: as above
# Hck = Hck (UniProt P08631); test: as above
# Hck, sequence (P08631 whole entry, looked up): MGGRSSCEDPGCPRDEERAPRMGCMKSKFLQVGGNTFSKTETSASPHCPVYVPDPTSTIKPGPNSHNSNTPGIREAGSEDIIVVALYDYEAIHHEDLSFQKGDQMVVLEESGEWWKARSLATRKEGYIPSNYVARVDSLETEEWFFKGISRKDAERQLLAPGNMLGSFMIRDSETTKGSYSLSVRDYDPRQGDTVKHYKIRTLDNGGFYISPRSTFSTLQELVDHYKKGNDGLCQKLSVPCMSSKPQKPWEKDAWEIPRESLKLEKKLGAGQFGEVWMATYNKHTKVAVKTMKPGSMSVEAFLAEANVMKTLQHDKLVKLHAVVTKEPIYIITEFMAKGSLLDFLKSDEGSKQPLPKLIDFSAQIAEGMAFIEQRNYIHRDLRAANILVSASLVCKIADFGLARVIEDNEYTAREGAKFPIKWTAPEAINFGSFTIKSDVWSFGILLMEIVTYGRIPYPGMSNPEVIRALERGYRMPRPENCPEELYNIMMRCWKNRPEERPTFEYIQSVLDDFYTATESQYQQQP
# EPHB1 = EPHB1 (UniProt P54762); test: as above
# FGFR1 = FGFR1 (UniProt P11362); test: as above
# c-Abl (mouse) = test: as above
# MERTK = MERTK (UniProt Q12866); test: as above
# MERTK, sequence (Q12866 whole entry, looked up): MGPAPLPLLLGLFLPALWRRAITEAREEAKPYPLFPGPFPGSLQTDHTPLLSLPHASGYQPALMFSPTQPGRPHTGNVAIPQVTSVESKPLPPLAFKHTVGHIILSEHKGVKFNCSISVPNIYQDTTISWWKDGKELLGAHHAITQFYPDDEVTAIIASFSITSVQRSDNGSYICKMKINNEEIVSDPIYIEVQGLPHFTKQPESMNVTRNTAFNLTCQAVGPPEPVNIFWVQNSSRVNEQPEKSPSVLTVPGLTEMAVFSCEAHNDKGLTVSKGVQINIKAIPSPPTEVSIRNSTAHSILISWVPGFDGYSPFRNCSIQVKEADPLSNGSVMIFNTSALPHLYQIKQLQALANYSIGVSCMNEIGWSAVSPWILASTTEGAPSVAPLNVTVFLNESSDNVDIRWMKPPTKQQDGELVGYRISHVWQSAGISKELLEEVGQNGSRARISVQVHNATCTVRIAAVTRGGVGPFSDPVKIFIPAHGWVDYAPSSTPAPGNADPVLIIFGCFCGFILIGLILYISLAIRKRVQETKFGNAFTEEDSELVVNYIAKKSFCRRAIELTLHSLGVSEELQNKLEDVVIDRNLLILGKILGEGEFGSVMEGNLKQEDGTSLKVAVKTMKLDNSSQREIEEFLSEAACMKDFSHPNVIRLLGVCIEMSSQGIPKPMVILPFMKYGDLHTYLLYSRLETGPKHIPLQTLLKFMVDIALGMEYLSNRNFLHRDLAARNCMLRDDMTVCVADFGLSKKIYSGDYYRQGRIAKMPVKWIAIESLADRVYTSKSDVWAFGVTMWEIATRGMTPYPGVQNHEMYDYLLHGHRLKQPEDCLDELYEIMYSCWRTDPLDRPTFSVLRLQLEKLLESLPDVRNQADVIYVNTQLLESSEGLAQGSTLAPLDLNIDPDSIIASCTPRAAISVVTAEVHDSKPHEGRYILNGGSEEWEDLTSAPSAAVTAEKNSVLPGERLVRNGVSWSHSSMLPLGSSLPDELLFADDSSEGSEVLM
# FGFR3 = FGFR3 (UniProt P22607); test: as above
# Jak2 = Jak2 (UniProt O60674); test: as above
# Jak2, sequence (O60674 whole entry, looked up): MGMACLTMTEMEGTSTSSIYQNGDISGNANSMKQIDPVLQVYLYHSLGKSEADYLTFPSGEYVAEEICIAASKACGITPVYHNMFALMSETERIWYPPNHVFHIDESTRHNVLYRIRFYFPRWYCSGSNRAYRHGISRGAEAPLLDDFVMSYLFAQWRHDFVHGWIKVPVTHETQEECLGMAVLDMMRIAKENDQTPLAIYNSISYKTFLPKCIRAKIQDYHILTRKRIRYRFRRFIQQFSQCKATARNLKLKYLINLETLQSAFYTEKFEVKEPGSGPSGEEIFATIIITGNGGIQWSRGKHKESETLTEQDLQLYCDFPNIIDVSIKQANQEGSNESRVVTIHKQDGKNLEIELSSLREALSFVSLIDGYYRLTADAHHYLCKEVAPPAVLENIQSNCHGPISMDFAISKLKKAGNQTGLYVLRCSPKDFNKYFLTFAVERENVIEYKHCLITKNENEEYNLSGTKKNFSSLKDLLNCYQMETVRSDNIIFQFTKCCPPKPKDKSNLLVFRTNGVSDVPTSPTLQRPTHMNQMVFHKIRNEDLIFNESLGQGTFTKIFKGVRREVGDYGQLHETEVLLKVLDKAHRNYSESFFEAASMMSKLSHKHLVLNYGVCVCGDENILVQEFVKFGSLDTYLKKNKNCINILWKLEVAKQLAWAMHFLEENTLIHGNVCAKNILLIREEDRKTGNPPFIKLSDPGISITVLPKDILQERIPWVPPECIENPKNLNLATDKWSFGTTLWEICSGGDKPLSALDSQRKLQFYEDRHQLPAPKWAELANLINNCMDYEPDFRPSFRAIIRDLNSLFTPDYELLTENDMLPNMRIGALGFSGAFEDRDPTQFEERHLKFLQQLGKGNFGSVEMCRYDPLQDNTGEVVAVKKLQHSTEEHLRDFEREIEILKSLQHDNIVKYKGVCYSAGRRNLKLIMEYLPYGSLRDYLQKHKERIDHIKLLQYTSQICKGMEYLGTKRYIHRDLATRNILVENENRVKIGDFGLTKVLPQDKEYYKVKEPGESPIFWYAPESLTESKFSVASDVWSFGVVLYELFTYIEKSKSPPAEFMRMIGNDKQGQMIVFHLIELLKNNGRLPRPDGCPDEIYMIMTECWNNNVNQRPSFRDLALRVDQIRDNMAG
# c-Src SH2 = test: SH2 binding enrichment of the phosphorylated peptide, bacterial display (enrichment ratio); higher = better substrate or ligand; peptides without Tyr show the background
# SHP2-C SH2 = test: as above
# Grb2 SH2 = Grb2 SH2 (UniProt P62993); test: as above
# Grb2 SH2, sequence (P62993 whole entry, looked up, the tested form may be a part): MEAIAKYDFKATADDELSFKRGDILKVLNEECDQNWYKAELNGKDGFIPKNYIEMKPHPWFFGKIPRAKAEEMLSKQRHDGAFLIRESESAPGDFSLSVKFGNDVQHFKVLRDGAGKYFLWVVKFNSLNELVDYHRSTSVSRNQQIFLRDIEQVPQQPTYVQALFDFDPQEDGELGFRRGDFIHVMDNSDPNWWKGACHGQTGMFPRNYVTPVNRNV
# 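For SH2 binding enrichment of the phosphorylated peptide, bacterial display in this document: peptide library displayed on the E. coli surface as eCPX fusions, selected cells deep-sequenced, score is each peptide's frequency after selection divided by its frequency in the input.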
# 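For phosphorylation enrichment, bacterial display in this document: 11-residue human phosphosite peptides and single-mutation variants displayed on the E. coli surface, counted by deep sequencing, each peptide's frequency after selection divided by its frequency in the unselected input library; frequency after pTyr selection over input frequency; kinase dosed for 20-30% of maximal phosphorylation in three min.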
# EPHB2, sequence (P29323 whole entry, looked up): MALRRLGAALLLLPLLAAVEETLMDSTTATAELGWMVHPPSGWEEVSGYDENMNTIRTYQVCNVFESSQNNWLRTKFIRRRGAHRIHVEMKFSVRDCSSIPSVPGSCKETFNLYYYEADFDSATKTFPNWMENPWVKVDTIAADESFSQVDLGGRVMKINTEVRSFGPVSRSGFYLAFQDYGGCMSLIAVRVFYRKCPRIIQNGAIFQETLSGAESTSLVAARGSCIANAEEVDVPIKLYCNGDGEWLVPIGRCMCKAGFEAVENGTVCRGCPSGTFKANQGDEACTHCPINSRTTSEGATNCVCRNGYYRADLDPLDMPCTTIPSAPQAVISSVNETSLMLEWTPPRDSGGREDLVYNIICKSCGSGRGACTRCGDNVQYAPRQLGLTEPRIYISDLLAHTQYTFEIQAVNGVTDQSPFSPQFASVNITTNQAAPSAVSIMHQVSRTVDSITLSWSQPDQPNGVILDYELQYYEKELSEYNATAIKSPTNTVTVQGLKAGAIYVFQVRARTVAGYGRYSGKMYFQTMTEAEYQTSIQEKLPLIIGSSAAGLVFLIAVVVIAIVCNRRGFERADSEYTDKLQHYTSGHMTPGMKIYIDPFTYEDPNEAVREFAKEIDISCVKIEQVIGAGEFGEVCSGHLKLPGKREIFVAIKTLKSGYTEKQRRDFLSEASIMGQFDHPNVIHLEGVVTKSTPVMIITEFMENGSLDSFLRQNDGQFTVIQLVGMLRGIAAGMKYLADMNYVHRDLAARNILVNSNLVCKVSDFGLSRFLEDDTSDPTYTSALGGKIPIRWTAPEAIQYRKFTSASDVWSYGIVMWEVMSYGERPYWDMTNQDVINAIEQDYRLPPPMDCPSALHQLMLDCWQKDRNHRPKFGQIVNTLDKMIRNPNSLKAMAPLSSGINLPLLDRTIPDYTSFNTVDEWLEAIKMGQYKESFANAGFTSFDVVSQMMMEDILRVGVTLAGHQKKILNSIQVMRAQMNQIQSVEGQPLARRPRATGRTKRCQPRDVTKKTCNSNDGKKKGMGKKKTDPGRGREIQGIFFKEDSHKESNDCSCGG
# Fyn, sequence (P06241 whole entry, looked up): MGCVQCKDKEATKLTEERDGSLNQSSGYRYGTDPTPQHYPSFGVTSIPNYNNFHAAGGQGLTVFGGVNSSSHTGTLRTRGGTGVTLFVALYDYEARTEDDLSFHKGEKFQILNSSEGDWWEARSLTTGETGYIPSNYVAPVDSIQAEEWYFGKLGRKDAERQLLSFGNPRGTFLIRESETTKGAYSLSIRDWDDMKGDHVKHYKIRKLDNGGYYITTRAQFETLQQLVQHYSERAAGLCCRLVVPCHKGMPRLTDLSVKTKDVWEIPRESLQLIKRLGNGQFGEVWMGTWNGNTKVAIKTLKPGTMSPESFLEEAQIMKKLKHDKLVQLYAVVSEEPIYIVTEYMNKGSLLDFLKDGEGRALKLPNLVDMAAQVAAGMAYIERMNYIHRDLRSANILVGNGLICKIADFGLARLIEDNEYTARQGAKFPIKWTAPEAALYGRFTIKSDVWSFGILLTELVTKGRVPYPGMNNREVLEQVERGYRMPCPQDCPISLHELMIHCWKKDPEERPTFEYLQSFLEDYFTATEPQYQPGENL
Sequence,phosphorylation enrichment (EPHB2),phosphorylation enrichment (AncSZ),phosphorylation enrichment (Fer (mouse)),phosphorylation enrichment (Fyn),phosphorylation enrichment (Fes),phosphorylation enrichment (c-Src),phosphorylation enrichment (Hck),phosphorylation enrichment (EPHB1),phosphorylation enrichment (FGFR1),phosphorylation enrichment (c-Abl (mouse)),phosphorylation enrichment (MERTK),phosphorylation enrichment (FGFR3),phosphorylation enrichment (Jak2),SH2 binding enrichment (c-Src SH2),SH2 binding enrichment (SHP2-C SH2),SH2 binding enrichment (Grb2 SH2)
VSLEAYCKHKY [RXRA_Y403_A398V],0.584,1.01,0.541,0.656,1.24,0.46,0.579,0.7,0.611,0.96,0.559,0.662,1.05,0.421,0.627,0.62
VSRGRYRPQEC [B4GALT4_Y113],0.476,0.754,0.542,0.574,0.643,0.657,0.49,0.527,0.475,0.545,0.575,0.515,0.655,0.43,0.409,0.62
VSTKVYKRFPS [BEST1_Y148_A146K],0.348,0.445,0.422,0.366,0.605,0.425,0.352,0.344,0.384,0.505,0.365,0.305,0.47,0.656,0.848,1.1
VTRAKYFIRDE [GNAS_Y339],0.405,0.654,0.325,0.404,0.694,0.375,0.409,0.356,0.45,0.458,0.405,0.432,0.622,0.358,0.54,0.989
VTRLWYPVCFG [ITK_Y336_R335W],0.699,1.17,0.509,0.502,1.35,0.403,0.488,0.66,1.11,0.89,0.412,1.36,1.02,0.745,0.936,1.07
VVDVTYDDVPI [FLNB_Y1308_E1305D],1.23,1.38,3.96,1.04,1.27,1.05,1.3,2.21,0.506,0.801,0.511,0.697,0.951,0.518,0.866,0.822
VVEVTYDDVPI [FLNB_Y1308],1.07,2.02,5.94,1.76,1.56,1.3,1.82,1.57,0.742,0.805,0.688,0.947,1.1,0.519,0.529,0.819
VVIVLYFSLWK [SLC6A2_Y249],0.453,0.703,0.314,0.241,1.13,0.348,0.42,0.254,0.486,0.942,0.39,0.459,0.64,1.22,1.56,1.59
VVVTKYCKEEL [ATP7B_Y1078_A1074V],0.658,1.08,0.554,0.568,1.37,0.492,0.546,0.639,0.58,0.873,0.447,0.824,0.968,0.369,0.609,0.637
VYLGAYDCFLP [SLC22A5_Y486_R488C],8.08,2.18,7.23,7.34,1.41,6.4,5.14,5.46,1.15,1.77,7.36,1.09,1.28,0.992,1.36,1.1
WDLPEYSFKDP [ITGA3_Y237_S235P_YF],0.571,2.37,0.421,3.1,1.25,1.02,1.19,0.558,0.486,0.871,0.381,0.836,1.18,0.502,1.04,0.931
WFPANYVKLLS [ITSN1_Y1132],1.52,0.785,0.518,0.419,0.841,0.399,0.549,4.12,0.763,0.596,0.569,0.825,1.51,0.893,2.25,1.02
WHHTFYNELCV [ACTC1_Y93_R97C],0.658,1.19,1.04,0.574,1.23,0.73,1.18,0.793,0.881,0.761,0.905,0.979,1.03,1.2,0.767,0.86
WHHTFYNELRV [ACTA1_Y93],0.483,0.875,0.54,0.502,1.01,0.546,0.997,0.558,0.552,0.657,0.587,0.645,0.783,1.9,1.52,1.2
WKGSWYSMRKM [FGB_Y475],0.513,1.07,0.473,0.49,1.11,0.538,0.523,0.588,0.676,0.71,0.499,0.716,0.847,1.97,1.48,1.78
YCRHNYGAVES [HLA-DRB1_Y112_V114A],0.623,0.658,0.514,0.416,0.678,0.503,0.549,0.566,0.519,0.696,0.549,0.659,0.739,1.34,0.704,0.902
YDRREYSRFEK [ITGB7_Y758],0.483,0.902,0.545,0.498,0.957,0.702,0.673,0.486,0.459,0.96,0.512,0.554,0.925,0.737,0.813,1.02

Sequence,phosphorylation enrichment (EPHB2),phosphorylation enrichment (AncSZ),phosphorylation enrichment (Fer (mouse)),phosphorylation enrichment (Fyn),phosphorylation enrichment (Fes),phosphorylation enrichment (c-Src),phosphorylation enrichment (Hck),phosphorylation enrichment (EPHB1),phosphorylation enrichment (FGFR1),phosphorylation enrichment (c-Abl (mouse)),phosphorylation enrichment (MERTK),phosphorylation enrichment (FGFR3),phosphorylation enrichment (Jak2),SH2 binding enrichment (c-Src SH2),SH2 binding enrichment (SHP2-C SH2),SH2 binding enrichment (Grb2 SH2)
YEEDSYSHIMA [FDPS_Y388],0.714,1.85,1.48,0.64,1.26,0.813,0.976,0.67,1.35,0.663,0.561,1.18,1.06,2.41,0.564,0.733
YEEDSYVKRSQ [RET_Y905],0.643,1.17,0.529,0.489,1.23,0.544,0.49,0.626,0.495,0.714,0.51,0.775,1.09,1.43,0.514,0.719
YGIAQYCCRMG [LRRK2_Y2023],11.2,0.983,0.902,0.8,0.762,0.665,1.02,1,0.605,3.48,4.29,0.583,0.482,0.806,0.936,1.21
YGSSSYGGAGG [RPA2_Y14],0.305,0.457,0.381,0.414,0.626,0.442,0.39,0.714,0.35,0.899,0.359,0.409,0.476,0.438,0.793,0.734
YGSSSYRGAGG [RPA2_Y14_G15R],0.334,0.491,0.465,0.386,0.483,0.412,0.443,0.393,0.343,0.623,0.369,0.409,0.528,0.49,0.507,0.877
YIPSNYVAEDR [FRK_Y104],0.623,0.921,0.434,0.523,0.954,0.536,0.501,0.519,0.634,0.685,0.535,0.72,0.721,0.761,0.948,1
YKIYRYTLNDN [FN1_Y1975_L1974R],0.557,1.13,0.406,0.368,1.04,0.415,0.573,0.467,0.439,0.688,0.331,0.617,0.905,0.534,0.832,0.77
YLGEEYVKAVG [TF_Y674],0.391,0.908,0.393,0.465,0.823,0.444,0.329,0.454,0.446,0.645,0.403,0.523,0.698,0.509,0.788,0.795
YLTSSYINIST [IL23R_Y178],0.588,0.978,0.567,0.488,1.18,0.466,0.637,0.735,1.27,1.11,0.648,1.29,1.81,2.21,1.9,11.7
YNNYGYGNDGF [HNRNPH3_Y161],6.45,0.789,0.566,0.577,0.924,0.505,0.455,3.61,0.766,0.547,0.759,0.766,0.673,1.85,0.591,2.52
YPSLPYSPVSS [CAMKK2_Y128_C123Y],0.401,0.663,3.13,0.458,0.683,0.546,0.62,0.436,0.873,0.564,0.514,0.721,0.489,0.668,1.01,0.967
YRAVKYLQMVG [AVPR2_Y117_C112Y],0.539,0.95,0.429,0.397,0.827,0.36,0.584,0.582,0.552,0.621,0.385,0.653,0.766,0.372,2.33,0.709
YSGDYYRIQGR [DDR2_Y741],2.72,1.82,0.429,1.04,0.846,2.31,1.68,5.47,12.1,1.76,5.04,8.65,8.46,0.552,0.673,1.01
YSIDHYLGKEM [G6PD_Y202_R198S],0.561,0.773,0.455,0.568,0.671,0.538,0.563,0.509,0.589,0.555,1.3,0.617,0.828,0.577,0.781,0.72
YTGDIYSSSNL [LZTR1_Y141_N143S],1.53,0.917,2.91,6.08,0.74,4.97,7.13,1.27,0.613,1.97,3.2,0.626,0.504,0.592,0.697,1.03
YTHSDYQYSQR [PKP2_Y166],0.482,0.892,0.42,0.403,0.594,0.434,0.391,0.479,0.467,0.444,0.474,0.507,0.757,0.595,0.638,0.785
